The target in test [1] is WAVE1ΔN, minimal Arp2/3-activating fragment of human WAVE1 (PVCA) (human). Description: FRET or BRET. A general note: In BRET a luciferase serves as donor, and the signal depends on an acceptor being close.
Test [2] has the same target. Description: FRET or BRET. The source holds these as a separate data set.
The target in test [3] is Native bovine (β, γ)-actin (bovine) (UniProt P60712). Description: TIRF microscopy, KD calculated from rate constants.
Test [4] shares this target. In words: single-filament TIRF microscopy.
The target is the same in test [5]. Description: single-molecule / single-filament TIRF microscopy.

Data on two substances can be found in doi:10.1101/2021.03.15.435411.

Where “and” joins values, the source holds several entries; their conditions need not be identical. Equal values may be shown once. Read-outs that look alike come from different tables or passages of the source.

Regarding “Atto540Q-quencher labeled Acanthamoeba castellani actin monomers (natural protein)”, the percent quenching of NPF donor fluorescence in test [1] was 59% and 69%; in test [2], 14%.
“Capping protein lacking the last 23 amino acids of the β subunit (CPαβΔ23) (from UniProt P47753;P47757-2) (complex)”: the fold reduction of affinity against wild-type CP in test [3] is 10 fold. Besides, in test [4], the fold change of koff against wild-type CP is 3 fold. Also, the fold change of kon against wild-type CP in test [5] came out at 3 fold.
